How the values were obtained:
Test in all cases: cell-based or functional assay
[1] = biological target: H3 peptide segment (first 30 amino acids of H3) of the phosphorylation indicator, phosphorylated by Msk-1
[2] = biological target: H4 peptide of the H4 acetylation indicator, acetylated by CBP
[3] = biological target: H3 peptide (first 30 amino acids of H3) of the H3 methylation indicator, methylated by G9a

14-3-3 domain of the histone 3 phosphorylation indicator
YFP/CFP emission ratio increase (FRET) on in vitro phosphorylation by Msk-1 [1]: 25%

bromodomain of the Drosophila transcription factor TAF250 in the H4 acetylation reporter
YFP/CFP emission ratio increase (FRET) on in vitro acetylation by CBP + acetyl-CoA [2]: 11%

chromodomain of HP1 in the H3 methylation indicator
YFP/CFP emission ratio increase (FRET) on in vitro methylation by G9a + SAM [3]: 20%

From patent publication US20040265906A1
